One may read the Kd as a measure of binding affinity in units of concentration. A lower Kd goes with a tighter complex.

The values that follow come from patent US20240092867A1 (UNIVERSITY OF CHICAGO, published 2024).

For one assay, the target named is T1, bovine type I collagen (bovine, UniProt P02453 178-1191; P02465 89-1102).
T1 construct: PureCol, Advanced BioMatrix; coated on the plate; also called collagen I; PureCol
Kind of assay: ELISA, collagen I coated, 0.01-30 nM binder. On the procedure:
ELISA plates (NUNC MaxiSorp, ThermoFisher Scientific) were coated overnight with 10 μg/mL of bovine type I collagen (PureCol, Advanced BioMatrix, San Diego CA, USA) at room temperature. The plate was further blocked using 2% bovine serum albumine (BSA) for 2 h at room temperature. […] The plate was washed thrice in PBST, and an horseradish peroxidase-conjugated anti-human Fab antibody (Jackson ImmunoResearch,) was used to detect bound FabCol variants. […] Absorbance at 450 nm was read using […], and corrected using the absorbance at 570 nm. Curve fits and dissociation constant KD were computed using Prism (GraphPad Software Inc., USA).
Background: ELISA stands for enzyme-linked immunosorbent assay.

A further assay addresses T2, recombinant human BMP-2 (human, UniProt P12643 283-396).
T2 construct: also called rhBMP-2
Kind of assay: ELISA, rhBMP-2 coated 50 nM, binder 50 nM.

In assay [1] the target is T3, recombinant human syndecan-4 (human, UniProt P31431 19-145, limits assumed).
T3 construct: Histidine tag of unstated position and length
T3 sequence (looked up): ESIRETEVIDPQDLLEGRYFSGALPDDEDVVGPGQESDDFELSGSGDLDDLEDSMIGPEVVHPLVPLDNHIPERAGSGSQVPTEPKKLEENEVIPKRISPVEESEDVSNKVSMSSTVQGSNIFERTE
Kind of assay: ELISA, peptide coated, syndecan 1 µg/mL, anti-His detection. As to the method: (§1) ELISA tests were performed as described above. In brief, ELISA plates were coated with 1 μg/mL laminin peptide (sequences are described in Table 1, chemically synthesized by Genscript) in PBS for 2 hrs at 37° C. 1 μg/mL of BSA served as non-binding protein control. After blocking with 2% BSA PBS-T solution, 1 μg/mL of the recombinant human syndecan-1, syndecan-2, syndecan-3, syndecan-4 (all syndecan proteins are histidine-tagged; SinoBiological) were added. Bound GF was detected with anti-histidine tag antibody (1:1000 dilution, BioLegend).

Assay [2] deals with T4, recombinant human syndecan-2 (human, UniProt P34741 19-144, limits assumed).
T4 construct: Histidine tag of unstated position and length
The assay is described as above. On the procedure: as §1

Assay [3] has as its target T5, recombinant human syndecan-1 (human, UniProt P18827 23-254, limits assumed).
T5 construct: Histidine tag of unstated position and length
T5 sequence (looked up): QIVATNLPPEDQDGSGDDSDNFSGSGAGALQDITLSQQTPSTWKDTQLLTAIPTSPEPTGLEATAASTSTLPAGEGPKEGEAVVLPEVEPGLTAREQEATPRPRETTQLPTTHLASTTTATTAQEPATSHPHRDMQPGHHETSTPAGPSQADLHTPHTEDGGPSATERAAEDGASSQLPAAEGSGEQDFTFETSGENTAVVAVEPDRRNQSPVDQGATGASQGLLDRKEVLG
The description is as above. On the procedure: as §1

Assay [4] addresses T6, vascular endothelial growth factor (VEGF)-A165 (human, UniProt P15692-4 27-191).
T6 construct: mature; Purchased in mature form, not glycosylated
Kind of assay: ELISA, peptide coated, GF 1 µg/mL. As to the method: (§2) (A) The location of laminin-derived peptides in the LG domain of laminin α3, α4, and α5 chains. (B-F) Affinity of heparin and GFs against chemically synthesized peptides derived from the LG domain of laminin α3, α4, and α5 chains. ELISA plates were coated with 10 μg/mL laminin peptide and further incubated with (B) biotinylated heparin, (C) VEGF-A165 and VEGF-A121, (D) PlGF-2 and PlGF-1, (E) PDGF-BB, or (F) FGF-2. Concentrations were 1 μg/mL for GFs and 10 μg/mL for heparin. Bound heparin was detected with streptavidin, and bound GFs with a specific antibody for each GF (n=4, mean±SEM). Statistical analyses were done using the Mann-Whitney U test by comparing the signals obtained from the laminin peptide- and the BSA-coated wells. *p<0.05, **p<0.01.
(§3) ELISA tests were performed as described above. […] 1 μg/mL of BSA served as non-binding protein control. After blocking with 2% BSA PBS-0.05% Tween 20 (PBS-T) solution, 1 μg/mL of the recombinant human proteins (VEGF-A121, VEGF-A165, PlGF-1, PlGF-2, PDGF-BB or FGF-2) or 10 μg/mL of biotinylated heparin (Sigma-Aldrich) were added. Bound GF was detected with biotinylated antibodies for human VEGF, PlGF, PDGF-BB, or FGF-2 (R&D Systems). The antibodies were detected by streptavidin-HRP (R&D Systems).

In assay [5] the target is T7, placental growth factor (PlGF)-2 (human, UniProt P49763-3 19-170).
T7 construct: mature; Purchased in mature form
T7 sequence (looked up): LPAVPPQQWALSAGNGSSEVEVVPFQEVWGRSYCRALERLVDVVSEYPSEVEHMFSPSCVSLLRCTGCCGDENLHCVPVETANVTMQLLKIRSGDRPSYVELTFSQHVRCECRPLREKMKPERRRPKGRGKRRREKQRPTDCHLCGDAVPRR
Kind of assay: ELISA, peptide coated, GF 1 µg/mL. On the procedure:
as §2, §3

In assay [6] the target is T8, platelet-derived growth factor (PDGF)-BB (human, UniProt P01127 82-190).
T8 construct: mature; Purchased in mature form
Kind of assay: ELISA, peptide coated, GF 1 µg/mL. On the procedure:
as §2, §3

In assay [7] the target is T9, fibroblast growth factor (FGF)-2 (human, UniProt P09038 143-288).
T9 construct: mature; Purchased in mature form
Kind of assay: ELISA, peptide coated, GF 1 µg/mL. On the procedure:
as §2, §3

Assay [8] deals with T10, vascular endothelial growth factor (VEGF)-A121 (human, UniProt P15692-9 27-147).
T10 construct: mature; Purchased in mature form, not glycosylated
T10 sequence (looked up): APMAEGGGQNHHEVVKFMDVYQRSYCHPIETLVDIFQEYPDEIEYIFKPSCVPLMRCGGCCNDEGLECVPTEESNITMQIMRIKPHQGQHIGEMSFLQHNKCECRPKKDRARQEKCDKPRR
Kind of assay: ELISA, peptide coated. On the procedure:
as §2, §3

Assay [9] concerns the target T11, placental growth factor (PlGF)-1 (human, UniProt P49763-2 19-149).
T11 construct: mature; Purchased in mature form
T11 sequence (looked up): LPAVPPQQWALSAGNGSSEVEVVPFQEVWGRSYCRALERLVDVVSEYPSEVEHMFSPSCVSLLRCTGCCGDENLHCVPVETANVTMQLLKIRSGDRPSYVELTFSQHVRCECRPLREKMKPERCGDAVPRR
Kind of assay: ELISA, peptide coated. As to the method: as §2, §3

Assay [10] concerns the target T10, vascular endothelial growth factor …. Kind of assay: ELISA; peptides and vWF forms coated at 50 nM, VEGF-A in solution, detected with anti-VEGF-A antibody [panel D]. As to the method:
(A) Diagram of exon sequence of VEGF-A showing inclusion (+) or exclusion (−) of heparin binding domain exons for the different VEGF-A isoforms. […] Bound VEGF-A was detected using a specific antibody for VEGF-A (n=4, mean±SD). Statistical comparisons were done using ANOVA with Tukey's test compared with BSA control. **p<0.01.
ELISA was performed as previously reported1. […] After blocking with 2% BSA solution containing PBS-T, 1 μg/mL of recombinant human VEGF-A121 (PeproTech), recombinant human VEGF-A145 (R & D Systems), or recombinant human VEGF-A165 (PeproTech) was added. Bound VEGF-A was detected with 1 μg/mL of mouse anti-human VEGF-A antibody (clone: 26503, R & D systems). After 60 min of incubation, horseradish peroxidase (HRP) conjugated goat anti-mouse antibody (1:2000 dilution, Dako) was added and incubated for another 60 min. Color development and the absorbance measurement were done as described above.

For assay [11], the target named is T8, platelet-derived growth factor (PDGF)-BB. Kind of assay: ELISA; peptide coated (10 µg/mL, legend paragraph 53), 1 µg/mL PDGF-BB in solution, BSA-coated wells as control [panel E]. As to the method:
as §2, §3

In assay [12] the target is T7, placental growth factor (PlGF)-2. Kind of assay: ELISA; peptide coated (10 µg/mL, legend paragraph 53), 1 µg/mL PlGF-2 in solution, BSA-coated wells as control [panel D]. On the procedure:
as §2, §3

Assay [13] deals with T8, platelet-derived growth factor (PDGF)-BB. Kind of assay: ELISA; peptide coated (10 µg/mL, legend paragraph 53), GF in solution, BSA-coated wells as control [panel E]. As to the method: as §2, §3
For assay [14], the target named is T9, fibroblast growth factor (FGF)-2. Kind of assay: ELISA; peptide coated (10 µg/mL, legend paragraph 53), 1 µg/mL FGF-2 in solution, BSA-coated wells as control [panel F]. As to the method: as §2, §3
In assay [15] the target is T6, vascular endothelial growth factor …. Kind of assay: cell-based or functional assay.
For assay [16], the target named is T8, platelet-derived growth factor (PDGF)-BB. Kind of assay: cell-based or functional assay.

T8 sequence (P01127 82-190): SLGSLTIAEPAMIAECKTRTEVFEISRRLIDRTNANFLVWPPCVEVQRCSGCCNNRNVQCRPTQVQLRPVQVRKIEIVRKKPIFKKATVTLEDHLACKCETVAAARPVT
T9 sequence (P09038 143-288): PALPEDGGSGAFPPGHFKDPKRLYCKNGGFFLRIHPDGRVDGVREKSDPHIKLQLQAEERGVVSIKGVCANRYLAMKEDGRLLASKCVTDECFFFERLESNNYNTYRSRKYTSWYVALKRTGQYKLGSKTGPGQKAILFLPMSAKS
T4 sequence (P34741 19-144 limits assumed): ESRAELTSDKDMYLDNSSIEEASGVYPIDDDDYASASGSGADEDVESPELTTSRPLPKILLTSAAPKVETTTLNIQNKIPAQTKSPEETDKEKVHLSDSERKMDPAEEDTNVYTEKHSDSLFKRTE
T1 sequence (P02453 178-1191, chain 1 of 2): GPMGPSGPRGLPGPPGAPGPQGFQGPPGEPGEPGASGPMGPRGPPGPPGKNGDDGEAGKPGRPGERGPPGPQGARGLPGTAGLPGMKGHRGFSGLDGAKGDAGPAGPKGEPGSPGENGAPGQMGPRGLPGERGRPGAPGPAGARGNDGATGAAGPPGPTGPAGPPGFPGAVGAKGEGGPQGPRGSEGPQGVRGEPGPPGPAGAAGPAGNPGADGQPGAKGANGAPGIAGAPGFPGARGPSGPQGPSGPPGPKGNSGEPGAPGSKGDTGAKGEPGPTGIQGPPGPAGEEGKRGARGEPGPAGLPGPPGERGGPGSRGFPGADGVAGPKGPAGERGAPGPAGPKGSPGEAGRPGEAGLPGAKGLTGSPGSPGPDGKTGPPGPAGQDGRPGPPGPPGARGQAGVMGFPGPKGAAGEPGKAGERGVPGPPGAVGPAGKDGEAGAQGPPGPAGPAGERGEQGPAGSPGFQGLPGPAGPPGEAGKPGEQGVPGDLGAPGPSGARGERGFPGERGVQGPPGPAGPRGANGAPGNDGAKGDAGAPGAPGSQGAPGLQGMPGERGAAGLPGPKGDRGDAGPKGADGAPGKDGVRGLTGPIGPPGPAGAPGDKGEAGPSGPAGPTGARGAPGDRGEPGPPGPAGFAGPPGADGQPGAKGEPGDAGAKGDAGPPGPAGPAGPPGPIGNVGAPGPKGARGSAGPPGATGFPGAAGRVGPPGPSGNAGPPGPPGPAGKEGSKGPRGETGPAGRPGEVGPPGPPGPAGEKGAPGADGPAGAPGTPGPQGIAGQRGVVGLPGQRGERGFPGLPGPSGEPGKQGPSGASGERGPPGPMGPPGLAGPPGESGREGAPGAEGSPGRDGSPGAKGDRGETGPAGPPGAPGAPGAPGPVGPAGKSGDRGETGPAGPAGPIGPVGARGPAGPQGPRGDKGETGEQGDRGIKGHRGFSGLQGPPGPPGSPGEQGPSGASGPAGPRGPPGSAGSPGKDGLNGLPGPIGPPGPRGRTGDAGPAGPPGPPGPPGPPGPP
T1 sequence (P02465 89-1102, chain 2 of 2): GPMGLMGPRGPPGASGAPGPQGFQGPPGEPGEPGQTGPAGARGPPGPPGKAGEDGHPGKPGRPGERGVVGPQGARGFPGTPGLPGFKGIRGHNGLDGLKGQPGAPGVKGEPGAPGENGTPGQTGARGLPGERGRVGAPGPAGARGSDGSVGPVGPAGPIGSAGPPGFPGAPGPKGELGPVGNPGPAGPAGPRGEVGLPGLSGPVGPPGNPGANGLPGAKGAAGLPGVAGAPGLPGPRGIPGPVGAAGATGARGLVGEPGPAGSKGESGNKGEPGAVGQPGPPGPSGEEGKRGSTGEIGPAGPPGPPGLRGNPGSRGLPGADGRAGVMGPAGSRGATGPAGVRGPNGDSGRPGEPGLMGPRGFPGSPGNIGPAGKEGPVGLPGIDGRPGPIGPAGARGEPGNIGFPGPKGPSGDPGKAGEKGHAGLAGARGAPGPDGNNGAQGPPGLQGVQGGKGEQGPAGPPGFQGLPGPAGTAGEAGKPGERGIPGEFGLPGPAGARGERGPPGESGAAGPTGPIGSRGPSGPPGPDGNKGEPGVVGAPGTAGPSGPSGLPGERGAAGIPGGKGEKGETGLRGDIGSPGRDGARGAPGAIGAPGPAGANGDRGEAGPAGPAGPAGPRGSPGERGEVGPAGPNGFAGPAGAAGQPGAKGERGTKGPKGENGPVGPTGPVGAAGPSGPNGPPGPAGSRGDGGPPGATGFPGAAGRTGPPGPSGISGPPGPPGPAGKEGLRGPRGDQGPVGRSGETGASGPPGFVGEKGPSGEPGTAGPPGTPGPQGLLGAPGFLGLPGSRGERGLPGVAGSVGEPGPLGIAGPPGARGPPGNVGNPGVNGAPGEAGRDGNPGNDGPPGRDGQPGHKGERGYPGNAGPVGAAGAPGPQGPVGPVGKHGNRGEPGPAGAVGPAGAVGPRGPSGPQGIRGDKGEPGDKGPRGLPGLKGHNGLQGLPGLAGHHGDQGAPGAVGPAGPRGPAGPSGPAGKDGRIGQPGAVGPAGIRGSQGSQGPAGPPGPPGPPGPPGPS
T2 sequence (P12643 283-396 limits assumed): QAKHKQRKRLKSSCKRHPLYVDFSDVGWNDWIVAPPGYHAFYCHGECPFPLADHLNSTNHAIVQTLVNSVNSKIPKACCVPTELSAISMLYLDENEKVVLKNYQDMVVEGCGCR
Experimental for recombinant human BMP-2: ELISA plates (NUNC MaxiSorp) were coated with 50 nM of recombinant human BMP-2 (CHO produced, R&D Systems, Minneapolis MN, USA) overnight at room temperature.

B1: FabCol-p(FgHBD) recombinant fusion protein (Fab)
light: EIVLTQSPGTLSLSPGERATLSCRASQSVSSSYLAWYQQKPGQAPRLLIYGASSRATGIPDRFSGSGSGTDFTLTISRLEPEDFAVYYCQQAIGFPQTFGQGTKVEIKRTVAAPSVFIFPPSDEQLKSGTASVVCLLNNFYPREAKVQWKVDNALQSGNSQESVTEQDSKDSTYSLSSTLTLSKADYEKHKVYACEVTHQGLSSPVTKSFNRGECGAGGGSGGGHRPLDKKREEAPSLRPAPPPISGGGYRARPAKAAATQKKVERKAPDAGGGSGGGSGGGHRPLDKKREEAPSLRPAPPPISGGGYRARPAKAAATQKKVERKAPDAGGGSGGGSGGGHRPLDKKREEAPSLRPAPPPISGGGYRARPAKAAATQKKVERKAPDAGGGT
heavy: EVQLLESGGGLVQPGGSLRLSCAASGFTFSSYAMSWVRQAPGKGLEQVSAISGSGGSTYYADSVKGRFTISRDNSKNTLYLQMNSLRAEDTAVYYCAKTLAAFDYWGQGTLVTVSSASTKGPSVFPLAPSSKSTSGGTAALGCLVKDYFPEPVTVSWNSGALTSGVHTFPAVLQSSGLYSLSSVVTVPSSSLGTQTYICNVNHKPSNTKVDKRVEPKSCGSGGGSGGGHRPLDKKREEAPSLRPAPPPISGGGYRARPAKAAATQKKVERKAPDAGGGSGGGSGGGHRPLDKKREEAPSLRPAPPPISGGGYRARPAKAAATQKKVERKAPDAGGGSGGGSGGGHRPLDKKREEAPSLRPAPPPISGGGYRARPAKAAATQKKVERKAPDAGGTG
notes: Three repeats of FgHBD at the C-termini of both Fab chains
Regarding B1, in the assay with bovine type I collagen, the equilibrium dissociation constant (Kd) was around 1.7 nM. Moreover, the binding result with recombinant human BMP-2 is listed as “binds”.

B2: laminin α5 3417-3436 peptide (LG4) (peptide)
peptide: RQRSRPGRWHKVSVRWEKNR
notes: Chemically synthesized (Genscript)
For the molecule B2, the binding result in assay [1], in assay [2], in assay [3], in assay [4], in [5] and in assay [6] was “binds” throughout. Besides, the binding result in [7] is “binds”; in [8], “no binding (tested: 1 µg/mL)”; in assay [9], “no binding (tested: 1 µg/mL)”.

B3: FabCol-FgHBD conjugates (Fab)
light: EIVLTQSPGTLSLSPGERATLSCRASQSVSSSYLAWYQQKPGQAPRLLIYGASSRATGIPDRFSGSGSGTDFTLTISRLEPEDFAVYYCQQAIGFPQTFGQGTKVEIKRTVAAPSVFIFPPSDEQLKSGTASVVCLLNNFYPREAKVQWKVDNALQSGNSQESVTEQDSKDSTYSLSSTLTLSKADYEKHKVYACEVTHQGLSSPVTKSFNRGEC
heavy: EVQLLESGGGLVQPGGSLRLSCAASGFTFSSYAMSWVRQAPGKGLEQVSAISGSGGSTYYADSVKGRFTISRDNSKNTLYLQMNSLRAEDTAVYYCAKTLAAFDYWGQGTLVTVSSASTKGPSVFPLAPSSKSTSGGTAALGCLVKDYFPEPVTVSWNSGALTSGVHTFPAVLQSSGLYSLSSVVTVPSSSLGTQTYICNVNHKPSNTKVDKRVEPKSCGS
peptide: GCGGSLRPAPPPISGGGYRARPAKAAATQKKVERKAPDA
modifications: chemically conjugated to FabCol with sulfo-SMCC crosslinker; multiple copies per FabCol (shift of about 35 kDa)
notes: Chemical conjugate
For the molecule B3, the dissociation constant Kd in the assay with bovine type I collagen was around 2.8 nM.

B4: vWF A1 HBD (24 residues, C-terminal Cys) (peptide)
peptide: YIGLKDRKRPSELRRIASQVKYAC
notes: also the peptide coupled into the PEG matrix; also called vWF HBD-Cys; vWF A1 HBD peptide
As to B4, in assay [10], the binding result is on record as “no binding (tested: 1 µg/mL VEGF-A121 (single concentration))”.

B5: laminin α3 2932-2951 peptide (Linker) (peptide)
peptide: PPFLMLLKGSTRFNKTKTFR
notes: as for B2
Turning to B5, the binding result in assay [4] is listed as “binds”; in assay [7] it was “binds”; in [11] it was “binds”; in assay [8] it was “no binding (tested: 1 µg/mL)”; in assay [9], “no binding (tested: 1 µg/mL)”; in assay [12], “binds”.

B6: laminin α5 3300-3330 peptide (Linker) (peptide)
peptide: TPGLGPRGLQATARKASRRSRQPARHPACML
notes: as for B2
For B6, the binding result in assay [1] is recorded as “binds”; in [2] it was “binds”; in assay [3], “binds”; in assay [4], “binds”; in assay [5], “binds”; in [8] it was “no binding (tested: 1 µg/mL)”. Further, the binding result is “no binding (tested: 1 µg/mL)” in [9], “no binding (tested: 1 µg/mL PDGF-BB (single concentration))” in assay [13] and “binds” in assay [14].

B7: α2PI1-8-α5 3417-3436 (peptide)
peptide: NQEQVSPLRQRSRPGRWHKVSVRWEKNR
For the molecule B7, the “cumulative release of GF from peptide-functionalized fibrin matrix after 5 days” value in [15] came to 31%; in assay [16], 47%.

B8: α2PI1-8-α3 3043-3067 (peptide)
peptide: NQEQVSPLRLVFALGTDGKKLRIKSKEKCNDGK
Turning to B8, the figures for the “cumulative release of GF from peptide-functionalized fibrin matrix after 5 days” value in assay [15] and in assay [16] were 25% and 45%, respectively.
